In US20220259593A1, “CONTROL OF MAMMALIAN GENE DOSAGE USING CRISPR” (The Regents of the University of California, priority 2019, published 2022):
Substitutions are numbered along the chain they refer to.

Test system: K562 CRISPRi cells
Experiment: Constant region variant library pooled growth screen, K562
Assay type: cell-based, human
Conditions: sgRNA constant region variants
Description: We calculated relative activities for each targeting sequence:constant region pair by normalizing its phenotype to that of the targeting sequence paired with the unmodified constant region, identifying 409 constant region variants that on average conferred intermediate activity (0.1-0.9, FIG. 5B). Ten variants selected for individual evaluation also mediated intermediate levels of mRNA knockdown (FIG. 6B). Mapping the activities of constant region variants with single base substitutions onto the structure recapitulated known relationships between constant region structure and function (FIG. 5C).
The sequences in the library of modified constant regions were derived from the sgRNA (F+E) optimized sequence (23) modified to include a BlpI site (15). Each modified constant region was paired with 36 sgRNA targeting sequences (3 sgRNAs targeting each of 10 essential genes and six non-targeting negative control sgRNAs). The cloning strategy (described below) allowed the mutation of most positions in the sgRNA constant region. A variety of modifications were made, including substitutions of all single bases not in the BlpI restriction site (which is used for cloning), double substitutions including all substitutions at base-paired position pairs not before or in the BlpI site, and a variety of triple, quadruple, and sextuple substitutions, including base-pair-preserving substitutions at adjacent base-pairs.
The library was ordered and cloned in two parts. One part consisted of ˜100 modifications to the eight bases upstream of the BlpI restriction site. Constant region variants with mutations in this section were paired with each of the 36 targeting sequences, ordered as a pooled oligonucleotide library (Twist Biosciences), and cloned into pCRISPRia-v2 as described above. The second part consisted of ˜900 modifications to the 71 bases downstream of the BlpI restriction site. This part was cloned in two steps. First, all 36 targeting sequences were individually cloned into pCRISPRia-v2 as described above. The vectors were then pooled at an equimolar ratio and digested with BlpI (NEB) and XhoI (NEB). The modified constant region variants were ordered as a pooled oligonucleotide library (Twist Biosciences), PCR amplified with Phusion polymerase (NEB), digested with BlpI (NEB) and XhoI (NEB), and ligated into the digested vector pool, in a manner identical to previously published protocols and as described above, except for the different restriction enzymes.
Screens with the compact mismatched sgRNA library and the constant region library were conducted largely as described above, with smaller modifications during the screening procedure and an updated sequencing library preparation protocol. Briefly, the libraries were transduced in duplicate into K562 CRISPRi (both libraries) or HeLa CRISPRi cells (compact mismatched sgRNA library) as described above. K562 replicates were maintained separately in 0.15 to 0.3 L of RPMI-1640 in 0.3 L spinner flasks for the course of the screen. HeLa replicates were maintained in sets of ten 15-cm plates. Cells were selected with puromycin as described above (K562: 1 day of 0.75 μg/mL and 1 day of 0.85 μg/mL; HeLa: 2 days of 0.8 μg/mL and 1 day of 1 μg/mL). The remainder of the screen was carried out at >1000× library coverage (K562 compact mismatched sgRNA library: >2000×; HeLa compact mismatched sgRNA library: >1000×; K562 constant region library: >2000×). Multiple samples were harvested after 4 to 8 days of growth. For the drug screen, 10 μM lovastatin (ApexBio) or an equivalent volume of DMSO (vehicle) was added to flasks at t=0, and 3 days later cells were pelleted and re-suspended in fresh medium. Lovastatin (12 μM) or DMSO was again added after 5 and 9 days of growth, with media exchanges 3 days after drug supplementation. Multiple samples were harvested after 4 to 8 days for the K562 and HeLa growth screens. […]

[1] = activity relative to the original, un-modified constant region cr995
[2] = activity relative to the un-modified constant region cr995

B1: cr116 (nucleic acid)
guide: GTTTAAGAGCTAAGCTGGAAACAGCATAGCAAGTTTAAATAAGGCTAGTCCGTTATCAACGTGAAAACGTGGCACCGAGTCGGTGCT
modifications: listed as DNA, chemistry not fully specified
B1 gave a Mean relative activity [1] of 1.064.

B2: cr371 (nucleic acid)
guide: B1 guide with T54C, T56G, G61T, C68A, G79C
modifications: listed as DNA, chemistry not fully specified
Molecule B2 has a Mean relative activity [2] of 0.9355.

B3: cr576 (nucleic acid)
guide: B1 guide with T16C, G61T, C68A
modifications: listed as DNA, chemistry not fully specified
B3 was tested, and the Mean relative activity [2] was 0.935.

B4: cr953 (nucleic acid)
guide: B1 guide with G61T, C68A, A78C
modifications: listed as DNA, chemistry not fully specified
B4 gave a Mean relative activity [2] of 0.9337.

B5: cr822 (nucleic acid)
guide: B1 guide with T49A, G61T, A66C, C68A
modifications: listed as DNA, chemistry not fully specified
Molecule B5 has a Mean relative activity [2] of 0.9333.

B6: cr546 (nucleic acid)
guide: B1 guide with C60A, G61T, A65G, C68A, G69T
modifications: listed as DNA, chemistry not fully specified
B6 was tested, and the Mean relative activity [2] was 0.9326.

B7: cr630 (nucleic acid)
guide: B1 guide with A55G, T56C, G61T, C68A, G79C
modifications: listed as DNA, chemistry not fully specified
Work on B7 yielded a Mean relative activity [2] of 0.9325.

B8: cr291 (nucleic acid)
guide: B1 guide with G61T, C68A, G72C, C75T, G83A, C86G
modifications: listed as DNA, chemistry not fully specified
B8 showed a Mean relative activity [2] of 0.9321.

B9: cr243 (nucleic acid)
guide: B1 guide with G61T, T62C, A67G, C68A, A74C, C76T, G82A, T84G
modifications: listed as DNA, chemistry not fully specified
B9 was tested, and the Mean relative activity [2] was 0.9319.

B10: cr450 (nucleic acid)
guide: B1 guide with G61T, A65G, C68A, A74G, T84C
modifications: listed as DNA, chemistry not fully specified
B10 was tested, and the Mean relative activity [1] was 1.064.

B11: cr361 (nucleic acid)
guide: B1 guide with G17C, G61T, C68A
modifications: listed as DNA, chemistry not fully specified
For B11, the Mean relative activity [2] was 0.9312.

B12: cr577 (nucleic acid)
guide: B1 guide with A28G, A42G, A55C, G61T, C68A
modifications: listed as DNA, chemistry not fully specified
B12 gave a Mean relative activity [2] of 0.9309.

B13: cr375 (nucleic acid)
guide: B1 guide with G17T, G61T, C68A
modifications: listed as DNA, chemistry not fully specified
For B13, the Mean relative activity [2] was 0.9294.

B14: cr780 (nucleic acid)
guide: B1 guide with G61T, T62G, A67C, C68A, G77T, C81A
modifications: listed as DNA, chemistry not fully specified
For B14, the Mean relative activity [2] was 0.9287.

B15: cr304 (nucleic acid)
guide: B1 guide with C60T, G61T, A65G, C68A, G69A
modifications: listed as DNA, chemistry not fully specified
Work on B15 yielded a Mean relative activity [2] of 0.9285.

B16: cr614 (nucleic acid)
guide: B1 guide with G18A, G61T, C68A
modifications: listed as DNA, chemistry not fully specified
Work on B16 yielded a Mean relative activity [2] of 0.927.

B17: cr769 (nucleic acid)
guide: B1 guide with A32G, T53G, T54A, G61T, C68A
modifications: listed as DNA, chemistry not fully specified
With B17 the Mean relative activity [2] was 0.9268.

B18: cr974 (nucleic acid)
guide: B1 guide with G61T, A65G, C68A, A78T
modifications: listed as DNA, chemistry not fully specified
In the case of B18, the Mean relative activity [2] is reported as 0.9235.

B19: cr525 (nucleic acid)
guide: B1 guide with A59C, G61T, C68A, T70G, C76G, G82C
modifications: listed as DNA, chemistry not fully specified
B19 was tested, and the Mean relative activity [2] was 0.9205.

B20: cr752 (nucleic acid)
guide: B1 guide with G61T, A65T, C68A, T87G
modifications: listed as DNA, chemistry not fully specified
B20 was tested, and the Mean relative activity [2] was 0.9196.

B21: cr567 (nucleic acid)
guide: B1 guide with G61T, A64C, A65G, C68A
modifications: listed as DNA, chemistry not fully specified
For B21, the Mean relative activity [1] was 1.06.

B22: cr132 (nucleic acid)
guide: B1 guide with G61T, A65G, C68A, C76T, G82A
modifications: listed as DNA, chemistry not fully specified
Work on B22 yielded a Mean relative activity [2] of 0.9196.

B23: cr364 (nucleic acid)
guide: B1 guide with G61A, C68A
modifications: listed as DNA, chemistry not fully specified
B23 was tested, and the Mean relative activity [2] was 0.9193.

B24: cr388 (nucleic acid)
guide: B1 guide with G61T, C68A, G72T, C73A, G85T, C86A
modifications: listed as DNA, chemistry not fully specified
Molecule B24 has a Mean relative activity [2] of 0.9188.

B25: cr838 (nucleic acid)
guide: B1 guide with T46C, G61T, C68A
modifications: listed as DNA, chemistry not fully specified
In the case of B25, the Mean relative activity [2] is reported as 0.9187.

B26: cr597 (nucleic acid)
guide: B1 guide with A59C, G61T, C68A, T70G, C73G, G77T, C81A, G85C
modifications: listed as DNA, chemistry not fully specified
B26 gave a Mean relative activity [2] of 0.9187.

B27: cr640 (nucleic acid)
guide: B1 guide with G61T, C68A, A74C, C76A, G82T, T84G
modifications: listed as DNA, chemistry not fully specified
For B27, the Mean relative activity [2] was 0.9186.

B28: cr136 (nucleic acid)
guide: B1 guide with C45T, G48A, G61T, C68A, A74G, C75A, G83T, T84C
modifications: listed as DNA, chemistry not fully specified
In the case of B28, the Mean relative activity [2] is reported as 0.9172.

B29: cr275 (nucleic acid)
guide: B1 guide with G61C, C68G, C73G, C76A, G82T, G85C
modifications: listed as DNA, chemistry not fully specified
Work on B29 yielded a Mean relative activity [1] of 1.06.

B30: cr910 (nucleic acid)
guide: B1 guide with G61T, C68A, C73A, C76G, G82C, G85T
modifications: listed as DNA, chemistry not fully specified
Molecule B30 has a Mean relative activity [2] of 0.9171.

B31: cr409 (nucleic acid)
guide: B1 guide with C22G, G61T, C68A
modifications: listed as DNA, chemistry not fully specified
For B31, the Mean relative activity [2] was 0.9158.

B32: cr977 (nucleic acid)
guide: B1 guide with A59T, G61T, C68A, T70A, G77A, C81T
modifications: listed as DNA, chemistry not fully specified
In the case of B32, the Mean relative activity [2] is reported as 0.9127.
